Measured values from the domain aggregation screens of Martell et al. (2025).

Assay: soluble fraction after stress (log2 fold change); higher = more stays soluble; pooled small domains, quantitative proteomics
Details: stress: 75 degC
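Further: 20 min heating vs room temperature control held 20 min.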

Sequence	soluble fraction (log2)
HMRMYDVNEYSDEELHRILDLSSPTDSELEARILQMIQKYKYTNGGDNEKMAVFFENIYHHFFD	-1.65
HMRNAAGGIYGWMTLHQVAETVKLTEEEVIAITNLPAGIPRDVSLKNIEGVNDEELRALLEAYLEKQ	-1.34
HMRNISLSLRWHSGEWTADRLKSEVLALPGAMDMTVFEPQSQAYLRVEQGFDTKLLPAGIDVH	-1.31
HMRNNKLRRANKLKTEFENLPHIGKKRAHVLLKAFGSTENLKMTTAQALSEAAKISLKQAEEVLEAVRG	-0.466
HMRNQIRAVITPVPNQERYTVEMTIDDDAGNLLTLQMAAPDRQQAAEFAQRFQKHPEALYHAVLSVLL	-0.214
HMRNSFTVENTGERLDVFLTGQMPEFSRSHIQKLIASGQAWVNGVNRKGNFKLKPHDVVELEVPEPE	0.381
HMRNSVQREWIYDYIQRQDAHLSADEIYEGLLKEGKNISLATVYRNLSILVDEYKIASVMTDSKKQVYDK	-2.56
HMRNTPQRRHAILALLSEQGEVSVDALAKRFSTSEVTIRKDLAAMESHGLLLRRYGGAVPMPQELI	-1.63
HMRPEVALSSRELEILEALATGKSNKELAQRLFISEATVKTHLIHIYQKLGVDTRTAAVTVARERKL	-2.3
HMRPEVTEHLKTADAILHGGDINRQSIVDELRQYAPLYIVRGNNDKDWAEAIPHDLTVTLGGVTFFMVHNR	-0.0851
HMRPFAMNLLEKHKADIEVWLKHPNMTNTQIKRLLEELGTSVSVSSIDRFISTSFPKLPKHT	-0.121
HMRPIWVQLADDFRHRIVSGQWPPGSKIPSVRELAAETGVNPNTVQRALGALDGEGLTATERTAGRFVTT	-0.266
HMRPKVADIDYFDGKTFTIEDGSKHSITTSEAKKIYFYLVKNGYVDDESHVTDAYRSAATSGTLA	0.0416
HMRPQELSSLNTNQMRLYNSLPEAFITAEAKDIADKLRYSERSLFRFLNESNLFTKTEHGSYAKKA	0.0879
HMRPQYVDLFTKLSAEEAGAITSKLKELKVEYQLADNGSTIKVPQKDAAEIRLELANEGLPA	0.138
HMRPRQDRSEETRDRILDAVVELIAERGLAGVSHRAVADRAGVSLSATSYYFGSKAELERAALEEHYRR	-0.881
HMRPSGEAVNAAYRLLKGANPSGNEGDLIQRAQEVAAILPKLNRSSAAAFAKDAKANGLTQAETIALWKGS	0.135
HMRPTYRTRLEVLINNPAISGRDLDFAQSLLSYYERKGRLSAGRVKWVTTLEERYSPENLAASAAK	-0.856
HMRQFEPVEGYNPYADKNELHGYEYWGAKFADSRSPEETAWIKQQIDDENEDRRFISEAGLA	0.0889
HMRQQQISAAIKTSVNGTVDYYVRRLPERDPRGDFLEVWDDLQKVIQAAHGIQVSHDELYEYFRRLK	-0.833
HMRQQSLHSLYRDHHSWLQNWLRRQLGNTWDAADLSQDTFIKVLASSQSVAEIREPRAYLLTVGKRL	-0.294
HMRQSDIAAAFRESILRSSKGFQYLHTRDFVTALRRRGIHLSEVEANSWIAREKTYFVDSALDHSENRLWI	-1.65
HMRQSIHTALQLLTPREEEVLNLLVSGKSNKQVAEHFSLSSKTIERHRSSVMRKLDASSFAQLVRIAALR	-3.27
HMRQYPSGVFKEEGVKAVYIHAGTPFLVIAAQYKIPLARLFEWNNLLPSTEARISQVIYLERPG	-3.92
HMRRARVAGKGHFTGEDAMAVYRELEALFGETETLYLPGHRPFEAVLSKLALIGVPEKNTVPYTFAFVET	-0.392
HMRREIRLTVTEEIVLMKFLLTQIPYKNRDNFKTLLNDRQIRVNGSVVTWYNHPLKPGQEVTIGWFKM	-0.264

Sequence	soluble fraction (log2)
HMRRPRGVFNLVPGKRFGFITPDGGGEDVFAHLANVRAGHVAEDRNAVEYGIGRGPDGRDQAVDIVPMP	-0.329
HMRRQRNPEIFDQLVNKFHFTFTQTQQLKQLIKRWHMLFPGKSLKSAIQGYKSAKEILTYINDSLDVVE	0.213
HMRRRTLRQGATGSDVHAVQRLLNVDGAGLRTDGIFGPATERAVIAYQRKHGLAVDGVVGRETWTALLG	-0.743
HMRRSDLVTQGDEILKRLQWNQQQAKDFLNQHLKASSRQQLTDEQLLNFNMLLEEQLVKSME	0.426
HMRRSLIGPTVRERRRALGITQSRLAAEVGISASYLNLIEGDKRNIGGALLQRIAGALGLALD	-3.08
HMRRTVIVTAAHAEIRERPDANAPLVFSAEQKVSLDYQETAPGGWVKVRHRDGQSGYVRTNQI	-0.716
HMRRVGTALNRSHKVSYGESIQSIAARYNVNPTMLREYNRLKPEATITPGQILRIPPATIAS	-0.481
HMRRVRRTRRLLQDGLLGLMQHKAVADISVKELAEAADVARATVYVHFKDPADVLHQLEQGLY	0.091
HMRSDHVFTSHLARRDKYISELESLSDSARDDHIQTIKEEDEYLLKYRRTRNLFGIPLNDEMKQFEPFNY	-0.228
HMRSEILNLLREKSPQPVSGQDLANHFGITRTAVWKHIQSLKKMGYGIEAYTKKGYVLVSVPN	-0.159
HMRSGEDESFSAGLLEYPHYTRPAEFEGHRIPDILTSGDHAKVDAWRQEMSEHITRERRPDLWEMYKKK	0.13
HMRSHLSANLQRLRHIAGLTQKDLALAANLPRATLASLEQGEANPRLDTLLAVASALQVGLDELIAAP	-1.32
HMRSIMAVSNYRHKKILEMVYQRKSVSADELAAEFGVSKITIRRDLDTLAMDKLLERTRGGAISISD	-3.14
HMRSRHYRFSTPFLDRLIAEIDWNSDNALSIFNQKLVHFDFLKYFSAIQPGSIVEIENLNFIWTGKRLEAH	-3.37
HMRSVLSDEIYLLIRKMIFNYEILPGAKVNIDALAKKLDVSQTPVREALSRLESDGLIVKEPLKGFRATD	-2.72
HMRSVPNVAGLGMDGAAFQLGKAGFAIGTITPADDPKAVVGSIQRTEPAAGTVADRDTVVNLFQV	0.228
HMRSVTLQTDREGDILYVDGKQIGVSPQRLELSYGVHTIRAERGEQHTEKELEVTETGGETVVTLGFG	0.375
HMRSYTPGSAFRLSSVPVYNAETGPSIGVRSGTYYIHSLPVSNGRIRMTNLISRVGKPGQVSFWVEISR	-3.11
HMRTAELEVWDDDELNDVVKLIQNNHNINTLKLRFQENVSFSGLSLIAAVLTKQSIILEIEY	0.235
HMRTDQYHYLAWKQVADELGIPFDEQVNERLRGVSRMASFDIILERYDGTMSDEEKIHWTDKKNEIYKSM	-0.603
HMRTGLSGMIGEIGIVKQAIDPEGKVAVHGELWKARADVALAAGQTVRVVAVDGLTMTVEATDSK	-0.661
HMRTIPDALIGRPYESVETAIVLEGLQAKRTEVFHPTIRPGTVIRLEPTSGSELLRDGVVEIFVSQGPETT	0.157
HMRTITIDDSIAGKRLDEALTLLGAESSRTKVKLLFSSPNGVLVNGEKEKPHYRVEAGDVIQFGELPKK	0.541
HMRTKEGLASQLEKIPGIGPVKRKALLKKFGSIDAIAAASKEELMLTDGITSSLADAIRDYF	-0.0754
HMRTLKDSTEYLIRSMLLRGEMKVGEIYSANALAKELNISNSPVREAMMSLVDRGLLENVRNRGFRVV	-1.83
HMRTLRENIMDYFKQQTIIQKSSVILLPMSKRQLADYFGVQRPSLFRELKKLKEEGIIEINNRTITIK	-1.8

Sequence	soluble fraction (log2)
HMRTSIWTAIAHSLRSDIGSGVYGPDDKLPTESALAARFGVNRHTVRHAIKALTDEGLVLPRRGAGVFVTS	-0.241
HMRTSPGADYEKTYYTIQSGDNLGAIAEKMGVSVADLKDWNDISGTKIYAGKKLVIYVKKGST	-0.351
HMRTTTGSEGMIGSIGKAKTDLAPDGKIFIHGELWDATSSSPVSAGQKIEVTQIEGLKLHVKPVL	0.7
HMRTVLSDETYLRIREMLLTHDIAPGERINIDALARELDVSQTPVREALARLESEDLVTKEPLRGYTATK	-0.0533
HMRTYEHALTEEEKELILIVSNLSEYKSLPPSQIVPKLADLGIYIASESSFYRVLRAHNQLHHRGR	-2.75
HMRTYYEILGVSKNASLHEIQKAYRELALKYHPKNNSDPTAEEKFTQINEAYTHLSDAARRRSYDDL	0.554
HMRVGADLTQRERELLALMAQGMSNQEIAKRLEIAVPTVKFHITNILDKLQVGNRTEAVIAALEHKLVP	-0.704
HMRVKLVKKSILASGGENIRVDKFLSNHILTMTRTQIKKLFLDGLVQVNKSFVKPGSILKGNEIITFSIPE	-1.68
HMRVNINVSENILDWVMKRVNPSVLSSKQGELLYAWKEGRKVPTYNQIEKMSKVTGIPLGYFFLEKPPVE	-1.45
HMRVPQWLVDKIAAAGIDTHRSGPALKALAAKAGTPEQLDQAIARAKALRRRTGSTQSLNVGLLGSILEGT	-0.345
HMRVQELARDLGVEADTLIALLRQMGIPVTGARSAINDAQQAKVLAKIERERRAGHSDPAKAIQAVLEEAS	0.00503
HMRVSNADALIGRRGKANSDIRRGDYGWVAIDGDVWKSKLADDITEDIPMGAIVEVLSRDSIILTVKP	-0.926
HMRWAAIMGREVAAHSTPESLVEGKLHIRTDTTAWATQLRLMSADIVRRLNEVLGEGTVLEVDVRG	-2.22
HMRWSDQKEIVTLSLDHVLVEKGRKTKEYSWREFRTFTAFEIKKSSKDQINLGFKSKGNTVIIGNF	-1.2
HMSAAELFEERQRQYLRGRKSTKNIADNHGTIILRAGETITDQAIDKAKVAGKLVELVMNNE	0.104
HMSADDSDDRKGIDAWLTQLLANGSVKATEVYSAADAAGYSKDQAKRAKRRLAIEAVREAMDGPWFWRLD	-0.853
HMSAEDQRRASQEAAYRFMQVMAGNEAGFEDAARALFAGDNHRFEVLIQSWPDDVRDHVSLLSVDAFA	-0.651
HMSAEVMLRRLIDENDPSSENARYILAVMLERKKILAPVDVKNEKKSKMLFYEHQKTGEAFIVRDP	-0.0597
HMSAEVSEIEIQRIISYYRNQNGVPDKYNEIFDRIAAQYTDEQLKVISNFLPSDVKQYLSFNNEKYKSLG	-0.904
HMSAGKKSFTNSEFRRFLDALGEGLIVKHKKLGEGVVVEIRGDKAVIQFGDEQRLYELKTLYEYDLLR	-0.628
HMSALAQDGDLVQLQGAGYKSHILRLKAGEVLQTHRGVIQHDAVIGQPWGARLQSHTGSPFYLFQPGLADL	-0.684
HMSALTELPVKTVNGKKYHYYVVKQHETVYALSKRFGITPEQLIKYNPSAEDGLQIDQELLFPATEI	-0.353
HMSANVSMEEALRRTSQAHSLAGKWMRRVLQMAQGRDLIEQMQREAQEAHLPELIGMSVQLEFIRRG	-0.107
HMSAPEGWMNRGDLRDNFRIQYPVTDRIIASYRESHPEWFGTYLSKTSKSLEYFHPDLVAKVREAAN	-0.0761
HMSAPQKWDGSLQDFIRFKQEAKTLMDNIPNKRLALNAILETISDGKMRKRLAKYDGPESALKSLELEFGN	-0.1
